{"source": "IntAct's records for PubMed 19666841", "parents": {"B1": {"name": "Glycerol-3-phosphate dehydrogenase 1-like protein (Homo sapiens), Q8N335 (parent)", "chain": "MAAAPLKVCIVGSGNWGSAVAKIIGNNVKKLQKFASTVKMWVFEETVNGRKLTDIINNDHENVKYLPGHKLPENVVAMSNLSEAVQDADLLVFVIPHQFIHRICDEITGRVPKKALGITLIKGIDEGPEGLKLISDIIREKMGIDISVLMGANIANEVAAEKFCETTIGSKVMENGLLFKELLQTPNFRITVVDDADTVELCGALKNIVAVGAGFCDGLRCGDNTKAAVIRLGLMEMIAFARIFCKGQVSTATFLESCGVADLITTCYGGRNRRVAEAFARTGKTIEELEKEMLNGQKLQGPQTSAEVYRILKQKGLLDKFPLFTAVYQICYESRPVQEMLSCLQSHPEHT"}}}
{"variants_of": "B1", "conditions": "with scn5a_human SCN5A"}
{"variant": "A280V", "effect of a mutation on the interaction": "with no effect"}
{"variant": "E83K", "effect of a mutation on the interaction": "with no effect"}
